Assay results published in the nanobody polyreactivity screen of Harvey et al. (2022).

Experiment: yeast display, Sf9 membrane polyspecificity reagent, FACS + sequencing; frameworks hold sequencing errors
In short: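 Synthetic nanobody libraries on Saccharomyces cerevisiae BJ5465 were galactose-induced for 36–48 hours, stained 1 hour at 4 °C with 10% biotinylated, detergent-solubilized Sf9 membrane reagent and enriched on streptavidin microbeads. FACS then separated cells into low and high (top ~1%) gates by anti-HA (expression) and streptavidin (reagent binding) fluorescence. Genes were colony-PCR amplified, MiSeq 2 × 250 sequenced and CDR-length filtered. A clone's polyreactivity label is that of its gate of origin.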

| Sequence | polyreactivity (PSR sort gate) |
| --- | --- |
| QVQLVESGGGLVQAGGSLRLSCAASGRTFQYYAMGWNRQAPGKERELVAAISQDGGSTYYADSVKGRFTISRDNAKHSVYLQMNSLKPEDTAVYYCDAEVWRSYGYWGQGTQVTVSS | low polyreactivity |
| QVQLVESGGGLVQAGGSLRLSCAASGIIFYYYAMGWYRQPPGKERELVAAISWSGDGTYYADSVKGRFTISRDNPKNTVYLQMNSLKPEDTAVYYCAALNDGFSGYDYLDEYTDYGYWGQGTQVTVSS | low polyreactivity |
| QVQLVESGGGLVQAGGSLRLSCAASGFTFLYNAMGWYRQAPGKERELVAAIDSGGNTNYADSVKGRFTISRDNAKNTVYLQMNSLKPEDTAVYYCAADVVSVGQGTADYDYWGQGTQVTVSS | low polyreactivity |
| QVQHVESGGGLVQAGGSLRLSCAASGNIIPYNAKAWYRQAPGKERELVATISSGGSTYYADSVKGRFTISRDNAKNTVYLQMNSLKPEDTAVYYCAARGRYPYLYGYWGQGTQVTVSS | high polyreactivity |
| QVQLVESGGGLVQAGGSLRLSCAASGITFAQYAMGWYRQAPGKERELVAGITRSGGSTHYADSVKGRFTISRDNAKNSVYLQMNSLKPEDTAVYYCAKGLSTGRAYRGYDYWGQGTQVTVSS | high polyreactivity |
| QVQLVESGGGLVQAGGSLRLSCAASGRTFIRNAMGWYRQAPGKERELVAAISGTGGSTYYADSVKGRLTISRDNAKNTVYLQMNSLKPEDTAVYYCAADRPAPGYDYWGQGTQVTVSS | low polyreactivity |
| QVQLVESGGGLVQAGGSLRLSCAASGSTFYANAMGWYRQAPGKERELVAAIDSGGTTTYADSVKGRFTISRDNAKNTVYLQMNSLKPEDTAVYYCAADQYWYIWYDYWGQGTQVTVSS | low polyreactivity |
| QVQLVESGGGLVQAGGSLRLSCAASGLIFYAYAMGWYRQAPGKERELVAAISYSGGSTYYADSVKGRFTISRDNAKNTVYLQMNSLKPEDTAVYYCAASYISVYWRWYEYWGQGTQVTVSS | high polyreactivity |
| QVQLVESGGGLVQAGGSLRLSCAASGRTFNRNAMGWYRQAPGKERELVAAISRGGGGTFYADSVKGRFTISRDNAKNTVYLQMNSLKPEDTAVYYCAAVPIAADKANGYDYWGQGTQVTVSS | low polyreactivity |
| QVQLVESGGGLVQAGGSLRLSCAASGYIFFTNAMGWYRQAPGKERELVAAISTIDGSTYYADSVKGRFTISRDNAKNTVYLQMNSLKPEDTAVYYCATDTPFISSLAYDYWGQGTQVTVSS | low polyreactivity |
| QVQLVESGGGLVQAGGSLRLSCAASGSTLRYYAMGWYRQAPGKERELVAAITYSAGRTSYADSVKGRFTISRDNAKNTVYLQMNSLKPEDTAVYYCATQWHSYLRRYDYWGQGTQVTVSS | low polyreactivity |
| QVQLVESGGGLVQAGGSLRLSCAASGSTFGGNAMGWYRQAPGKERELVAAITVGGDSTYYADSVKGRFTISRDNAKNTVYLQMNSLKPEVTAVYYCAAGPWYKFYDWRPWFSYDYWGQGTQVTVSS | low polyreactivity |
| QVQLVESGGGLVQAGGSLRLSSAASGSIFPLYAMGWYRQAPGKERELVATINRRTGSTYADSVKGRFTISRDNAKNTVYLQMKSLKPEYTAVYYCNAADNYVLFYKTRIYNYWGQGTQVTVSS | high polyreactivity |
| QVQLVESGGGLVQAGGSLRLSCAASGFTFHRYAMGWYRQAPGKERELVAAISSRGGSTYYADSVKGRFTISRDNAKNTVYLQMNSLKPEDTAVYYCAARWPHRYYSSYYGYDYWGQGTQVTVSS | high polyreactivity |
| QVQLVESGGGLVQAGGSLRLSCAASGSIFYRNAMGWYRQAPGKERELVAAISSSVSSTYYADSVKGRFTISRDNAKNTVYLQMNSLKPEDTAVYYCAARRVQRGGDYVYRYLYDYWGQGTQVTVSS | low polyreactivity |
| QFQLVESGGGLVQAGGSLPLSCAASGRTFGGNTMGRYREAPGKERELVAAISRRGGSTYYADSVKGRFTISRDNAKNTVYLQMNSLKPEDTAVYYCNKDGPSYSSYDYWGQGTQVTVSS | low polyreactivity |
| QVQLVESGGGLVQAGGSLRLSCAASGRIIWINAMGWDRQAPGKERELVATITKRGGRTYYADSVKGRFTISRDNAKNTVYLQMNSLKPEDTAVYSCNTGHEARHSQYQGGVYQDMGYWGQGTQVTVSS | low polyreactivity |
| QVQLEESGGGLDQAGGSLRLSCAASGSTYAYAMGWYRQAPRKERELVAAITRSGGSTYYADSVKGRFTISRDNAKNTVYLQMNSLKPEDTAVYYCRGKSTTWRGSQMDYWGQGTQVTVSS | high polyreactivity |
| QVHLVESGGGLVQAGGSLRLSCAASVRIISAYAMGWYRQAPGKERELVAAINGSGGSTYYADSVKGRFTISRDNAKNTVYLQMNSLKPEDTAVYYCAAKIDYPDARYFPYRYYYWGQGTQVTVSS | high polyreactivity |
| QVQLVESGGGLVQAGGSLRLSCAASGFTFWKYAMGWYRQAPGKERELVATITSSGDNTYYADSVKGRFTISRDNAKNNVYLQMNSLKPEDTAVYYCAADNGYHYNFDYWGQGTQVTVSS | low polyreactivity |
| QVQLVESGGGLVQAGGSLRLSCAASGIIFSYYDMGRYRQAPGKERELVATITGNGGSTYYADSVKGRFTISRDNAKNTVYLQMNSLKPEDTAVYYCAAQTTVYIYDYWGQGTQVTVSS | low polyreactivity |
| QVQLVESGGGLVQAGGSLRLICAASGPTFTKANAMVWYRQAPGKERELVAAITDGGSTYADSVKGRFTNSRDNSKNTVYLQMNCLKPEDTAVYYCAKENEVFYDASYDYWGQGTQVTVSS | low polyreactivity |

| Sequence | polyreactivity (PSR sort gate) |
| --- | --- |
| QVQLVESGGGLVQAGGSLRLSCAASGRIFRAIAMGLYRQAPGKERELVAAISFSGGGTYYADSVKGRFTISRDNAKYTVYLQMNSLKPEDTAVYYCAADQFWGGEEYDYWGQGTQVTVSS | low polyreactivity |
| QVQLEESGGGLVQAGGSLRLSCAASGRIFRYTLGWYRQAPGKERELVATINSGGRTYDADSVKGRFTISRDNAKNTVYLQMNSLKPEDTAVYYCAATYQTKSNKYVHGSPIENDYWGQGTQVTGSS | low polyreactivity |
| QVQLVESGGGLVQAGGSLRLSCAASGSTFGWYAMGLYRQAPVKERELVATISSGGSTYYADSVKGRFTISRDNAKNNVYLQMNSLKPEDTAVYYCAADYWTYEYPGYDYWGQGTQVTVSS | low polyreactivity |
| QVQLVESGGGLVQAGGSLRLSSAASGSIFGRYVMGWYRQAPGKERELVATISSGGSTYYADSVKGRFTISRDNAKNTVYLQMNSLKPEVTAVYYCNADYGYEYDYWGQGTQVTVSS | low polyreactivity |
| QVQLVESGGGLVQAGGSLRLSCAASGRIFTRYAMGWYRQAPGTERELVAVITRSGGSTYYADSVKGRFTISRDNAKNTVYLQMNSLKPEDTAVYYCAAKYYGEMYYWGQGTQVTVSS | low polyreactivity |
| QVQLVESGGGLVQAGGSLRLSCAASGRIFVRNAMGWYRQAPGKERELVADITNGGSTNYADSVKGRFTISRDNAKNTVYLQMNSLNPEDTAVYYCAADTLGVYDGDYWGQGTQVTVSS | low polyreactivity |
| QVQLVESGGGLVQAGGSLRLSCAASGSTFAKNAMGWYRQAPGKERELVAAITYSGGSTYYADSVKGRFTISRDYAKNTVYLEMYSLKPEYTAVYYCAADVWWSYFRYDYWGQGTQVTVSW | low polyreactivity |
| QVQLVESGGGLVQAGGSLRISCAASGRTFGANAMGWYRQAPGKERELVAGITSSGGSTSYADSVKGRFTISRDNAKNTVYLQMNSLKPEDTAVYYCAKDVYQHIFDVILGGYDSWGQGTQVTVSS | low polyreactivity |
| QVQLVESGGGLVQAGGSLRLSCAASGFIFAAYAMGWYRQAPGKERELVAAITWDGGSTYYADSVKGSFTISRDNAKNTVYLQMNSLKPEDTAVYYCAARRRHGYDYWGQGTQVTVSS | high polyreactivity |
| QVQLVESGGGLVQAGGSLRLSCAASGRTFVYYAMGWYRQAPGKEREFVATISDGGGTYYADSVKGRFTISRDNAKNTVYLQMNSMNPEDSAVYYCNARGTPWRYGGDYWGQGTQVTVSS | low polyreactivity |
| QVQLVESGGGLVQAGGSLRLSCAASGFTFAVNVMGWYIHAPGKEREFDAAISWTGGSTDYADSVKGRFTISLDNAKNTVYLQMNSLKPEDTAVYYCAADYNLRLQPFRKLVGPAGGYWGQGTQLTVSS | low polyreactivity |
| QVQLVDSGGGLVQAGGSLRLICAASGSTFYHYAMGWYRQAPGKERELVAAISSSGGRTYYADSVKGRFTISRDNAKNTVYLQMNSLKPEDTAVYYCAARAKTSGSIEDYWGQGTQVTVSS | high polyreactivity |
| QVQLVESGGGLVQAGGSLRLSCAASGRTFEPNAMGWYRQAPGKEREFVAAISWDGGDTYYADSVKGRFTISRDNAKNTVYLQMNSLKPEDTAVYYCAKSTLYSVEYDYWGQGTQVTVSS | low polyreactivity |
| QVQLVESGGGLVQAGGSLRLSCAASGSIIGGYVMGWYRQAPGKERELVAAITSRVGSTYYADSVKGRFTISRDNAKNTVYLQMNSLKPEDTAVYYCAVVFAKRAWSRYDYWGQGTQVTVSS | high polyreactivity |
| QVQLVESGGGLVQAGGSLRLSCAASGFIFYKYAMGWYRQAPGKERELVAAITRRGGSTYYADSVKGRFTISRDNAKNTVYLQMNSLKPEDTAVYYCAKYIYGYKDSPLGDDYWGQGTQVTVSS | high polyreactivity |
| QVQLVESGGGLVQAGGSLRLSCAASGFIFKYYAMGWYRQAPGKERELVAAISRRGGSTFYADSVKGRFTISRDNAKNTVYLQMNSLKPEDTAVYYCAAYYYYSAYGDDYWGQGTQVTVSS | high polyreactivity |
| QVQHVESGVGLVQAGGRLRLSCAASGRTFSSNAMGWYRKAPGKERELVAAISSSGGRTYYADSVKGRFTISRDNAKNTVYLDMNSLKQEDTAVYYCAVVYFPIWASYPYWWEYDYWGHGTQVTVSS | high polyreactivity |
| QDQLVESWGGLDKAGGSLLLICDASGSTFKFYTMGWYRQAPGKERELVATIDWSGVSTYYADSVKGRFTISRDNAKNTVYLQMNSLKPEDTAVYYCAARSLRLVGPYYYWGQGTQVTVSS | high polyreactivity |
| QVQLVESGGGLVQAGGSLRLSCAASGRILYIYAMGWYRQAPGKERELVASISWTDGSTYYADSVKGRFTISRDNAKNTVYLQMNSLKPEDTAVYYCNAAYYYYWDLKKYNYWGQGTQVTVSS | low polyreactivity |
| QVQLVESGGGLVQAGGSLRLSCAASGRILKWYAMGGYRQAPGKVRELVAAISARGGSTFYADSVKGRFTSSRDNAKNTVYLPMNSLKPEDTAVYYCAKRWPYTMYYWGQGTQVTVSS | high polyreactivity |
| QLQLVESGGGLVQAGGSLRLSCAASGFTFGVYAKGWYRQAPGKEREFVAAISWRGGSTYYADSVKGRFTISRDNAKITVYLQMNSLKPEDTAVYYCAADVLERGYGHYNYWGQGTQVTVSS | high polyreactivity |
